Data as given in patent publication US20190160181A1.

Target: Human cyclized NaPi2b peptide (human)
Assay: ELISA on plate-coated human cyclized NaPi2b peptide, one site-specific binding fit

Kd: 0.536 nM
B1: XMT-1535 (antibody, V domains shown)
VH: QVQLVQSGAEVVKPGASVKMSCKASGYTFTGYNIHWVKQAPGQGLEWIGAIYPGNGDTSYKQKFRGRATLTADTSTSTVYMELSSLRSEDSAVYYCARGETARATFAYWGQGTLVTVSS
VL: DIQMTQSPSSLSASVGDRVTITCSASQDIGNFLNWYQQKPGKTVKVLIYYTSSLYSGVPSRFSGSGSGTDYTLTISSLQPEDFATYYCQQYSKLPLTFGQGTKLELKR
